Experimental findings from the supplement of paper PMC10126150 are described below.

± gives the standard deviation of the averaged measurements.
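Also: ATP exposure 15 min at 22 °C before imaging.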

The data set concerns ATP. Put plainly: switch fluorescence ratio, 500 uM ATP over buffer (Cy3 cluster intensity, sum of 5 cycles each) (fold (ratio)); higher = stronger signal-on switching upon ATP binding; sequences stand for … in TCGTCGGCAGCGTCAGATGTGTATAAGAGACAGTTTTTTTTTTTTTTTTTTTTTTTTT…TC. The settings on record: aptamer strand: ATP DNA aptamer (quencher-CACCTGGGGGAGTATTGCGGAGGAAGG + anchor), 100 nM annealed; ATP concentration: 500 uM. In outline: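 Clusters with intensities outside 100-1000 RFU were excluded. The remaining Cy3-labelled switching-strand clusters on a modified Illumina MiSeq flow-cell had been annealed to 100 nM quencher-labelled ATP aptamer and imaged in selection buffer, then after 15 min with 500 uM ATP at 22 °C, for five cycles separated by NaOH stripping and re-annealing. The fluorescence ratio, averaged per switch-domain sequence, is each cluster's summed target-cycle Cy3 intensity over its summed buffer-cycle Cy3 intensity.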
Consider AATTTGTTGG, for which the switch fluorescence ratio came out at 0.996 ± 0.017.

As for GGAGGGGTTA, the switch fluorescence ratio was 0.978 ± 0.015.

In the case of CCATTCTTCG, the switch fluorescence ratio amounted to 1.08 ± 0.028.

Turning to ACATGAGCGT, the switch fluorescence ratio was determined as 0.996 ± 0.016.

Regarding CGGTCATTTT, the switch fluorescence ratio was 0.998 ± 0.033.

Consider TATCTACTGG, for which the switch fluorescence ratio stood at 1.0076 ± 0.00035.

Take CGGACACGAA: the switch fluorescence ratio is 0.981 ± 0.022.

TTGGACTGGG: the switch fluorescence ratio turned out to be 0.948 ± 0.082.

With TGAAATGGGG, the switch fluorescence ratio was 0.98 ± 0.049.

With TGCACCGAGT, the switch fluorescence ratio was found to be 1.04 ± 0.018.

Consider AATTATGTAG, for which the switch fluorescence ratio is 1 ± 0.014.

For the sequence AGAAAAAAGC, the switch fluorescence ratio turned out to be 0.989 ± 0.015.

CACGGCAAGA: the switch fluorescence ratio was determined as 1.89 ± 0.087.

In the case of GCGTAGGTAG, the switch fluorescence ratio is 0.964 ± 0.038.

Take ATTACGACTG: the switch fluorescence ratio is 1.06 ± 0.031.

Turning to CATTTTTGAA, the switch fluorescence ratio stood at 1.006 ± 0.0066.

Take AAGTGATGGT: the switch fluorescence ratio came out at 0.9999 ± 0.0069.

Take GCCCGGAGCG: the switch fluorescence ratio stood at 1.68 ± 0.13.

Turning to AGGTGTGTTG, the switch fluorescence ratio was 0.984 ± 0.034.

On to TATTAATGTT, for which the switch fluorescence ratio was found to be 0.997 ± 0.019.

Regarding CTGGTCCGGT, the switch fluorescence ratio was determined as 0.994 ± 0.018.

As to ACATATTTTG, the switch fluorescence ratio worked out at 1.01 ± 0.033.

Take AGGGATAATT: the switch fluorescence ratio is 0.975 ± 0.027.

Regarding TAAGGAGCGG, the switch fluorescence ratio was determined as 0.976 ± 0.013.

Turning to CTTTTTAGGC, the switch fluorescence ratio came to 1 ± 0.043.

For the sequence GTTGGTCTAT, the switch fluorescence ratio was 0.9778 ± 0.0064.

With AATACCGGCA, the switch fluorescence ratio is 1.04 ± 0.045.

Turning to AACTATTGCG, the switch fluorescence ratio stood at 0.988 ± 0.019.

Take TGGGTTTGAT: the switch fluorescence ratio turned out to be 1.01 ± 0.041.

Take GTAACTGGGA: the switch fluorescence ratio worked out at 1.009 ± 0.0093.

With TGCTGGGCC, the switch fluorescence ratio was found to be 1.02 ± 0.083.

On to GTTGGTTGGA, for which the switch fluorescence ratio was determined as 0.983 ± 0.022.

Take AGCCTGGGCT: the switch fluorescence ratio was determined as 0.99 ± 0.014.

For TCGTACGTTT, the switch fluorescence ratio was 1.04 ± 0.021.

Regarding GCTAAAGTTC, the switch fluorescence ratio is 1.01 ± 0.0014.

Regarding TTTCGGGAGT, the switch fluorescence ratio worked out at 0.976 ± 0.016.

For the sequence AAGGGTTGGC, the switch fluorescence ratio was found to be 0.983 ± 0.094.

As for AGTATAGGGC, the switch fluorescence ratio amounted to 0.989 ± 0.049.

TCTCGTTTTT: the switch fluorescence ratio was 1 ± 0.043.

On to TTTGCACTTT, for which the switch fluorescence ratio was 1 ± 0.046.

Take GGCTTTTGGG: the switch fluorescence ratio was 1.03 ± 0.088.

With AGGAATATTT, the switch fluorescence ratio worked out at 1.04 ± 0.095.

Turning to TTTGCGTGTT, the switch fluorescence ratio came out at 1.019 ± 0.0086.

On to CTGGTGGGGG, for which the switch fluorescence ratio is 0.9702 ± 0.0027.

Turning to ACCCGGCTCC, the switch fluorescence ratio was found to be 1.23 ± 0.045.

On to TGTATAAAAA, for which the switch fluorescence ratio worked out at 0.9906 ± 0.0039.

Regarding GATCTTTCTG, the switch fluorescence ratio is 0.994 ± 0.041.

For TATTGAATTC, the switch fluorescence ratio was found to be 1.01 ± 0.016.

With TGTGGGAGGG, the switch fluorescence ratio turned out to be 0.998 ± 0.042.

For the sequence GAAGATGAGG, the switch fluorescence ratio is 1 ± 0.028.

For the sequence GGATTATTGG, the switch fluorescence ratio is 1.002 ± 0.0083.

Turning to TCGACTCACT, the switch fluorescence ratio amounted to 1.2 ± 0.013.

Regarding TGGAAGCCGG, the switch fluorescence ratio amounted to 0.957 ± 0.037.

Consider ATAGAGTGCG, for which the switch fluorescence ratio was found to be 0.957 ± 0.024.

GCTGGGCTTG: the switch fluorescence ratio came to 0.9947 ± 0.0033.

AAATTGTAAA: the switch fluorescence ratio stood at 0.969 ± 0.051.

Consider TTTGGAGCAG, for which the switch fluorescence ratio came out at 1.14 ± 0.13.

As for TGTGGGGAAA, the switch fluorescence ratio was 0.993 ± 0.03.

Consider GGCGTTGGCT, for which the switch fluorescence ratio came to 0.985 ± 0.011.

On to AGGTAAAGTT, for which the switch fluorescence ratio came out at 0.972 ± 0.014.

On to AGGGGAGGCA, for which the switch fluorescence ratio was 1.02 ± 0.089.

Regarding AACAATTCTG, the switch fluorescence ratio amounted to 1.01 ± 0.012.

With CGGTGATCGG, the switch fluorescence ratio came to 0.996 ± 0.013.

Regarding ATGATATCTA, the switch fluorescence ratio was 0.993 ± 0.022.

Consider TTTTTGCATT, for which the switch fluorescence ratio was 1.038 ± 0.0028.

Consider TTAGATACCA, for which the switch fluorescence ratio was 1.03 ± 0.039.

Consider CGGTCGGGGA, for which the switch fluorescence ratio was 1 ± 0.043.

As for CTTGATGTAA, the switch fluorescence ratio was found to be 1 ± 0.064.

For the sequence CGGTGAGTGT, the switch fluorescence ratio worked out at 0.9608 ± 0.0063.

As to GACGACGGAG, the switch fluorescence ratio was 0.969 ± 0.034.

Regarding ACGGGGTGGT, the switch fluorescence ratio amounted to 1.065 ± 0.0059.

For the sequence CGGGGGTAAG, the switch fluorescence ratio is 0.991 ± 0.027.

TTGTACTTAC: the switch fluorescence ratio is 1.24 ± 0.048.

Regarding TTGTTGAAGG, the switch fluorescence ratio amounted to 0.998 ± 0.038.

On to TAAAAGCCTT, for which the switch fluorescence ratio is 1.06 ± 0.043.

TTGGGGAAGC: the switch fluorescence ratio worked out at 0.958 ± 0.002.

As for GGAGCCGGGC, the switch fluorescence ratio was 1.01 ± 0.013.

As for GGTTAAACTT, the switch fluorescence ratio turned out to be 1.02 ± 0.012.

For AGGCCCTAAG, the switch fluorescence ratio came out at 1.01 ± 0.017.

For the sequence GTGTGGATTC, the switch fluorescence ratio was 0.998 ± 0.013.

For CCGGGGGGCG, the switch fluorescence ratio came out at 0.976 ± 0.053.

As for TGAGTGGGTC, the switch fluorescence ratio was determined as 1.03 ± 0.013.

Turning to TCGAAGGGTT, the switch fluorescence ratio was 0.993 ± 0.028.

As to AGAAGTACTA, the switch fluorescence ratio was found to be 1.22 ± 0.036.

TTTAGGGAGC: the switch fluorescence ratio came out at 1.04 ± 0.029.

Turning to AGGGGATTC, the switch fluorescence ratio stood at 1.002 ± 0.0075.

Consider AGGGCTATTT, for which the switch fluorescence ratio was determined as 0.973 ± 0.01.

For the sequence AAGTCCTGCC, the switch fluorescence ratio worked out at 1.26 ± 0.081.

In the case of TTAGTAGGAG, the switch fluorescence ratio worked out at 0.992 ± 0.034.

On to GCGTTTACTT, for which the switch fluorescence ratio was determined as 1.004 ± 0.0016.

Turning to TTACATAGTA, the switch fluorescence ratio was found to be 1.06 ± 0.071.

AGGTTGAAGT: the switch fluorescence ratio was 0.988 ± 0.011.

On to GGCGGTATGT, for which the switch fluorescence ratio is 0.975 ± 0.028.

As for GTCGGTTGGA, the switch fluorescence ratio came to 0.977 ± 0.036.

For TAATAACATG, the switch fluorescence ratio is 0.9691 ± 0.0038.

In the case of TCAAGATTTT, the switch fluorescence ratio is 0.975 ± 0.025.

For TAAAAGCTTT, the switch fluorescence ratio is 1.02 ± 0.029.

In the case of GGGGGTGACG, the switch fluorescence ratio amounted to 0.995 ± 0.11.

As to ACATGGGCT, the switch fluorescence ratio was determined as 1.003 ± 0.0088.

Regarding GGATATGGGG, the switch fluorescence ratio turned out to be 0.99 ± 0.012.

ACACCTTTTT: the switch fluorescence ratio turned out to be 1.04 ± 0.032.

On to AATTTTTCGT, for which the switch fluorescence ratio is 1 ± 0.027.

On to GATGTAGTAG, for which the switch fluorescence ratio worked out at 1.01 ± 0.042.

AGGAGGTTTG: the switch fluorescence ratio amounted to 0.97 ± 0.015.

Turning to TAGGGCCCGG, the switch fluorescence ratio turned out to be 1.03 ± 0.077.

With TCCGGCTGAG, the switch fluorescence ratio came out at 1.02 ± 0.012.

CGTTGGCAGC: the switch fluorescence ratio turned out to be 1.03 ± 0.028.

Consider TGGGAGTTCC, for which the switch fluorescence ratio was determined as 1.04 ± 0.036.

On to TTGATCTCAT, for which the switch fluorescence ratio amounted to 0.9479 ± 0.0076.

On to TTTTTGTCGT, for which the switch fluorescence ratio is 0.983 ± 0.025.

For the sequence GTGTAAGGG, the switch fluorescence ratio worked out at 1.03 ± 0.031.

With AAGGTTTTCG, the switch fluorescence ratio turned out to be 1.01 ± 0.026.

As for TGGGTAACGT, the switch fluorescence ratio was 0.987 ± 0.033.

Take CGTTTTTAGG: the switch fluorescence ratio turned out to be 1.02 ± 0.024.

Regarding GTTTTGAACA, the switch fluorescence ratio stood at 0.983 ± 0.034.

Turning to TCATAGATCG, the switch fluorescence ratio is 1.01 ± 0.027.

For AGGTCAACCG, the switch fluorescence ratio amounted to 1.02 ± 0.02.

With AAATGCCGAT, the switch fluorescence ratio stood at 0.992 ± 0.015.

Regarding TTCTCTATAT, the switch fluorescence ratio turned out to be 1.05 ± 0.11.

TTTTATTGCA: the switch fluorescence ratio came out at 0.96835 ± 0.00073.
